Laboratory results published in US20250002564A1 (HOSPITAL FOR SICK CHILDREN, published 2025).
Numbering of substitutions follows the chain as printed. Values joined by “and” are separate entries in the source; they are usually repeats but may differ in a detail not shown here. Identical values can stand only once. Like-named read-outs stand apart in the source and are kept apart here.

B1: mAb 52 (antibody, V domains shown)
VH: QVQLVQSGAEVKKPGSSVKVSCKASGYTFTSYGISWVRQAPGQGLEWMGGIIPMFGTTNYAQKFQGRVTITADKSTSTAYMELSSLRSEDTAVYYCARDRGDTIDYWGQGTLVTVSS
VL: DIQMTQSPSSLSASVGDRVTITCRASQGISNNLNWYQQKPGKAPKLLIYAASSLESGVPSRFSGSGSGTDFTLTISSLQPEDFATYYCQQGNGFPLTFGPGTKVDIKR
notes: also called IgG 52; Antibody 52
B2: mAb 368 (antibody, V domains shown)
VH: QVQLVQSGAEVKKPGSSVKVSCKASGYTFTSYDINWVRQAPGQGLEWMGAIMPMFGTANYAQKFQGRVTITADESTSTAYMELSSLRSEDTAVYYCARGSSGYYYGWGQGTLVTVSS
VL: not shown
B3: mAb 178 (antibody, V domains shown)
VH: QVQLVQSGAEVKKPGASVKVSCKASGYTFTDYHMHWVRQAPGQGLEWMGWINPNSGGTNYAQKFQGRVTMTRDTSTSTVYMELSSLRSEDTAVYYCARDISSWYEITKFDPWGQGTLVTVSS
VL: EIVMTQSPATLSVSPGERATLSCKASQSVSGTYLAWYQQKPGQAPRLLIYGASTRATGIPARFSGSGSGTEFTLTISSLQSEDFAVYYCLQTHSYPPTFGQGTKVEIKR
notes: also called IgG 178; Antibody 178
B4: mAb 236 (antibody, V domains shown)
VH: QVQLVQSGAEVKKPGASVKVSCKASGGTFTSYGINWVRQAPGQGLEWMGWMNPNSGNTGYAQKFQGRVTMTRDTSTSTVYMELSSLRSEDTAVYYCASRGIQLLPRGMDVWGQGTTVTVSS
VL: not shown
notes: also called IgG 236; Antibody 236
B5: 4A8 IgG (antibody, V domains shown)
VH: EVQLVESGAEVKKPGASVKVSCKVSGYTLTELSMHWVRQAPGKGLEWMGGFDPEDGETMYAQKFQGRVTMTEDTSTDTAYMELSSLRSEDTAVYYCATSTAVAGTPDLFDYYYGMDVWGQGTTVTVSS
VL: EIVMTQSPLSSPVTLGQPASISCRSSQSLVHSDGNTYLSWLQQRPGQPPRLLIYKISNRFSGVPDRFSGSGAGTDFTLKISRVEAEDVGVYYCTQATQFPYTFGQGTKVDIK
notes: also called IgG 4A8
B6: mAb 254 (antibody, V domains shown)
VH: EVQLLESGGGLVQPGGSLRLSCAASGFTFSSSAMHWVRQAPGKGLEWVSAIGTGGDTYYADSVKGRFTISRDNSKNTLYLQMNSLRAEDTAVYYCAREGDGYNFYFDYWGQGTLVTVSS
VL: DIQMTQSPSSLSASVGDRVTITCRASQGISSYLAWYQQKPGKAPKLLIYDASSLQIGVPSRFSGSGSGTDFTLTISSLQPEDFATYYCLQSYSTPPWTFGQGTKVEIKR
notes: also called IgG 254; Antibody 254
B7: mAb 192 (antibody, V domains shown)
VH: QVQLVQSGAEVKKPGSSVKVSCKASGGTFSSYAISWVRQAPGQGLEWMGWINPNSGGANYAQKFQGRVTITADESTSTAYMELSSLRSEDTAVYYCSTYYYDSSGYSTDYWGQGTLVTVSS
VL: DIVMTQSPLSLPVTPGEPASISCRSSQSLLHSNGYNYLDWYLQKPGQSPQLLIYAASSLQSGVPDRFSGSGSGTDFTLKISRVEAEDVGVYYCMQALQTPYTFGQGTKLEIKR
B8: mAb 180 (antibody, V domains shown)
VH: QVQLVQSGAEVKKPGSSVKVSCKASGYTFTSYAMHWVRQAPGQGLEWMGRISPRSGGTKYAQRFQGRVTITADESTSTAYMELSSLRSEDTAVYYCAREAVAGTHPQAGDFDLWGRGTLVTVSS
VL: B7 VL with M94Q, A96Y, L97Y, Q98S, T99S
B9: mAb 349 (antibody, V domains shown)
VH: EVQLLESGGGLVQPGGSLRLSCAASGFTFSNYGMHWVRQAPGKGLEWVSGISSAGSITNYADSVKGRFTISRDNSKNTLYLQMNSLRAEDTAVYYCAGNHAGTTVTSEYFQHWGQGTLVTVSS
VL: DIQMTQSPSSLSASVGDRVTITCRASQSISSWLAWYQQKPGKAPKLLIYDTSNLETGVPSRFSGSGSGTDFTLTISSLQPEDFATYYCQQSYTTPWTFGQGTRLEIKR
notes: also called IgG 349; Antibody 349
B10: mAb 46 (antibody, V domains shown)
VH: EVQLLESGGGLVQPGRSLRLSCAASGFTFSSYAMSWVRQAPGKGLEWVSTIYSGGSTYYADSVKGRFTISRDNSKNTLYLQMNSLRAEDTAVYYCARGDSRDAFDIWGQGTMVTVSS
VL: B9 VL with T51A, T93S, W96F, Q100P, R103K, L104V, E105D
notes: also called IgG 46; Antibody 46
B11: mAb 160 (antibody, V domains shown)
VH: QVQLVQSGAEVKKPGASVKVSCKASGYTFTGHDMHWVRQAPGQGLEWMGIINPSGGSTSYAQKFQGRVTMTRDTSTSTVYMELSSLRSEDTAVYYCARANSLRYYYGMDVWGQGTMVTVSS
VL: B9 VL with I29V, D50A, T51A, N53S, E55Q, T56S, S91G, W96Y, R103K
notes: also called IgG 160; Antibody 160
B12: mAb 108 (antibody, V domains shown)
VH: QVQLVQSGAEVKKPGASVKVSCKASGYIFSRYAIHWVRQAPGQGLEWMGWMNPISGNTDYAPNFQGRVTMTRDTSTSTVYMELSSLRSEDTAVYYCAKDGSQLAYLVEYFQHWGQGTLVTVSS
VL: B9 VL with S28V, S30T, S31N, W32N, T51A, N53T, T94F, W96Y, R103K, L104V
B13: mAb 128 (antibody, V domains shown)
VH: QVQLVQSGAEVKKPGASVKVSCKASGYTFTHYYMHWVRQAPGQGLEWMGIINPSSSSASYSQKFQGRVTMTRDTSTSTVYMELSSLRSEDTAVYYCARDGRYGSGSYPFDYWGQGTLVTVSS
VL: DIQMTQSPSSLSASVGDRVTITCRASQNISRYLNWYQQKPGKAPKLLIYDASNLETGVPSRFSGSGSGTDFTLTISSLQPEDFATYYCQQANGFPPTFGQGTKLEIKR
B14: mAb 64 (antibody, V domains shown)
VH: EVQLLESGGGLVQPGGSLRLSCAASGFPFSQHGMHWVRQAPGKGLEWVSAIDRSGSYIYYADSVKGRFTISRDNSKNTLYLQMNSLRAEDTAVYYCARDTYGGKVTYFDYWGQGTLVTVSS
VL: B9 VL with S28G, W32H, T51A, S91T, T93S, R103K, L104V
notes: also called IgG 64; Antibody 64
B15: mAb 158 (antibody, V domains shown)
VH: QVQLVQSGAEVKKPGASVKVSCKASGYTFTGYYMHWVRQAPGQGLEWMGWINPLNGGTNFAPKFQGRVTMTRDTSTSTVYMELSSLRSEDTAVYYCARDPGGSYSNDAFDIWGQGTLVTVSS
VL: B13 VL with N28S, T56S, G93S, P96L, Q100G, L104V, E105D
notes: also called IgG 158; Antibody 158
B16: mAb 324 (antibody, V domains shown)
VH: QVQLVQSGAEVKKPGASVKVSCKASGGTFNNYGISWVRQAPGQGLEWMGWMNPNSGNTGYAQKFQGRVTMTRDTSTSTVYMELSSLRSEDTAVYYCARVGDYGDYIVSPFDLWGRGTLVTVSS
VL: B13 VL with N28S, S30T, R31T, A91S, N92Y, G93S, F94T, L104V
notes: also called IgG 324; Antibody 324
B17: mAb 82 (antibody, V domains shown)
VH: QVQLVQSGAEVKKPGASVKVSCKASGGSFSTSAFYWVRQAPGQGLEWMGWINPYTGGTNYAQKFQGRVTMTRDTSTSTVYMELSSLRSEDTAVYYCARSRALYGSGSYFDYWGQGTLVTVSS
VL: B13 VL with N28V, R31N, N34A, A91S, N92F, G93S, F94P, K103R
notes: also called IgG 82; Antibody 82
B18: mAb 56 (antibody, V domains shown)
VH: QVQLVQSGAEVKKPGASVKVSCKASGYTFTSYGISWVRQAPGQGLEWMGWISAYNGNTNYAQKLQGRVTMTRDTSTSTVYMELSSLRSEDTAVYYCARDIGPIDYWGQGTLVTVSS
VL: B13 VL with N28G, R31S, N34A, E55Q, T56S, G93S, P96S, L104V
notes: also called IgG 56; Antibody 56
B19: mAb 120 (antibody, V domains shown)
VH: QVQLVQSGAEVKKPGASVKVSCKASGYTFTSYDINWVRQAPGQGLEWMGMIDPSGGSTSYAQKFQGRVTMTRDTSTSTVYMELSSLRSEDTAVYYCAKDFGGGTRYDYWYFDLWGRGTLVTVSS
VL: EIVMTQSPATLSVSPGERATLSCRASQSVSSRYLAWYQQKPGQAPRLLIYGASTRATGIPARFSGSGSGTEFTLTISSLQSEDFAVYYCQQYYTTPRTFGQGTRLEIKR
notes: also called IgG 120; Antibody 120

Experiments:
Assay in all cases: cell-based or functional assay
[1] = biological target: T1, SARS-CoV-2 Spike on wild-type pseudotyped virus (PsV) (SARS-CoV-2, UniProt P0DTC2 14-1273)
[2] = biological target: Spike of authentic SARS-CoV-2/SB2-P4-PB virus (SARS-CoV-2, UniProt P0DTC2 14-1273)
[3] = biological target: T1, SARS-CoV-2 Spike on wild-type …; remark: listed apart in the source
[4] = biological target: T1, SARS-CoV-2 Spike on wild-type …; remark: listed apart in the source

Binder | IC50 SARS-CoV2 PsV (IgG) [1] [µg/mL] | IC50 SARS-CoV2/SB2-P4-PB (IgG) [2] [µg/mL] | Median IC50 [3] | Median IC50 [4]
B1 | 0.55 | 6.2 | 0.61 µg/mL and 4.1 nM | –
B2 | > 50 | – | > 50 µg/mL and > 333 nM | –
B3 | > 50 | – | > 50 µg/mL and > 333 nM | –
B4 | 0.057 | 5.5 | 0.057 µg/mL and 0.38 nM | –
B5 | – | – | – | > 100 µg/mL and > 0.66 µM
B6 | > 50 | – | > 50 µg/mL and > 333 nM | –
B7 | > 50 | – | > 50 µg/mL and > 333 nM | –
B8 | > 50 | – | > 50 µg/mL and > 333 nM | –
B9 | > 50 | – | > 50 µg/mL and > 333 nM | –
B10 | 2.1 | 19 | 2.1 µg/mL and 14 nM | –
B11 | > 50 | – | > 50 µg/mL and > 333 nM | –
B12 | > 50 | – | > 50 µg/mL and > 333 nM | –
B13 | > 50 | – | > 50 µg/mL and > 333 nM | –
B14 | > 50 | – | > 50 µg/mL and > 333 nM | –
B15 | > 50 | – | > 50 µg/mL and > 333 nM | –
B16 | 0.78 | 21 | 0.78 µg/mL and 5.2 nM | –
B17 | 1.6 | – | 1.6 µg/mL and 11 nM | –
B18 | > 50 | – | > 50 µg/mL and > 333 nM | –
B19 | > 50 | – | > 50 µg/mL and > 333 nM | –
